Source: US7294753
One block for each substance: values may come before it.

Tests used:
CD23 = CD23 (UniProt P06734); assay: comparator antibody, sub-head 'Kd'; method and antigen not stated
[1] = target: human macrophage migration inhibitory factor (MIF) (human) (UniProt P14174); assay: cell-based or functional assay
CD80 = CD80 (UniProt P33681); assay: comparator antibody, sub-head 'Kd'; method and antigen not stated
Chain of CD80 (P33681 35-242 limits assumed): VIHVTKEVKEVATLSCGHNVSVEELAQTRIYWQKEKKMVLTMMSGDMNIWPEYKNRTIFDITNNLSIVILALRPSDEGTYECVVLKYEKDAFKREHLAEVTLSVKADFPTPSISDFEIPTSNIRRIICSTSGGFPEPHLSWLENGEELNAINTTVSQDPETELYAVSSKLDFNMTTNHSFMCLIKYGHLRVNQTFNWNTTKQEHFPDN

Chain of CD23 (P06734 48-321 limits assumed): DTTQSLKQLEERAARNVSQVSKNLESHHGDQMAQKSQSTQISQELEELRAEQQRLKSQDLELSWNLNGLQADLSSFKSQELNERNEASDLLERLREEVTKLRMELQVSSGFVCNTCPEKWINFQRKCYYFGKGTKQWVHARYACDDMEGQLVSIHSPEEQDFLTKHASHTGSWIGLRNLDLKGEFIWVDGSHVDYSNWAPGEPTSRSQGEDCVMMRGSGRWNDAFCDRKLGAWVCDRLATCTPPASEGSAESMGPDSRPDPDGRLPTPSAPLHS
Chain of human macrophage migration inhibitory factor (MIF) (human) (P14174 2-115 limits assumed): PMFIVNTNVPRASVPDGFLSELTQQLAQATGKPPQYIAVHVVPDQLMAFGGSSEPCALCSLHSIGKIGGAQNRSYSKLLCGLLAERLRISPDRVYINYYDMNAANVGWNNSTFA

- Kd (CD23): 1.2 nM
Substance: IDEC-152 (anti-CD23 mab) (antibody)

- % MIF PPT Activity [1]: 105%
Substance: 2B8 (murine anti-CD20 Mab) (antibody)

- Kd (CD80): 2.2 nM
Substance: IDEC-114 (anti-CD80 mab) (antibody)
